Here are results for four sequences from the Immune Epitope Database (IEDB).

Assay [1] addresses HLA-B*57:01. Kind of assay: IEDB peptide-MHC binding, purified MHC/direct/fluorescence; filed as Kd, often an IC50 or EC50 that approximates it; ≥ and ≤ were set here for values at or beyond the usual limits of such assays. The note with it: source organism: Mycobacterium tuberculosis.
For assay [2], the target named is HLA-B*27:05. The assay is described as above. The note with it: source organism: Mycobacterium tuberculosis.
Assay [3] has as its target HLA-B*51:01. The assay is described as above. Particulars: source organism: Mycobacterium tuberculosis.
Assay [4] addresses HLA-B*08:01. The assay is described as above. The note with it: source organism: Mycobacterium tuberculosis str. Haarlem.
Assay [5] has as its target HLA-A*01:01. The assay is described as above.
Assay [6] addresses HLA-B*39:01. Described as above. Particulars: source organism: Mycobacterium tuberculosis str. Haarlem.
Assay [7] addresses HLA-B*58:01. The assay is described as above.
Assay [8] deals with HLA-B*15:17. Described as above. The note with it: source organism: Mycobacterium tuberculosis.
For assay [9], the target named is HLA-B*18:01. Described as above. Particulars: source organism: Mycobacterium tuberculosis.
The target in assay [10] is HLA-A*02:01. The assay is described as above. Particulars: source organism: Mycobacterium tuberculosis.
Assay [11] concerns the target HLA-B*38:01. Described as above. Particulars: source organism: Mycobacterium tuberculosis str. Haarlem.
Assay [12] concerns the target HLA-A*11:01. The assay is described as above.
The target in assay [13] is HLA-B*40:01. Described as above. The note with it: source organism: Mycobacterium tuberculosis.
Assay [14] addresses HLA-B*15:01. The description is as above.
Assay [15] has as its target HLA-A*69:01. The description is as above.
In assay [16] the target is HLA-A*31:01. The assay is described as above.
Assay [17] has as its target HLA-B*48:01. The description is as above. The note with it: source organism: Mycobacterium tuberculosis.
The target in assay [18] is HLA-B*46:01. The assay is described as above. The note with it: source organism: Mycobacterium tuberculosis.
For assay [19], the target named is HLA-A*03:01. The assay is described as above. Particulars: source organism: Mycobacterium tuberculosis.
Assay [20] has as its target HLA-B*08:02. The description is as above. Particulars: source organism: Variola virus.
The target in assay [21] is HLA-A*26:03. The assay is described as above. The note with it: source organism: Variola virus.
The target of assay [22] is HLA-A*24:03. Described as above. Particulars: source organism: Camelpox virus M-96.
Assay [23] concerns the target HLA-A*26:01. The description is as above.
In assay [24] the target is HLA-B*57:01. Kind of assay: IEDB peptide-MHC binding, purified MHC/competitive/fluorescence; filed as Kd, often an IC50 or EC50 that approximates it; ≥ and ≤ were set here for values at or beyond the usual limits of such assays. Particulars: source organism: Variola virus.
Assay [25] concerns the target HLA-B*08:01. The assay is described as above.
Assay [26] has as its target HLA-B*15:17. The assay is described as above. The note with it: source organism: Variola virus.
For assay [27], the target named is HLA-A*68:02. Described as above. The note with it: source organism: Variola virus.
The target in assay [28] is HLA-B*18:01. The description is as above. The note with it: source organism: Variola virus.
The target in assay [29] is HLA-A*02:01. The assay is described as above. Particulars: source organism: Variola virus.
The target in assay [30] is HLA-A*26:02. The assay is described as above. The note with it: source organism: Variola virus.
The target of assay [31] is HLA-B*07:02. The description is as above. The note with it: source organism: Variola virus.
For assay [32], the target named is HLA-B*15:09. Kind of assay: IEDB peptide-MHC binding, purified MHC/direct/fluorescence; filed as Kd, often an IC50 or EC50 that approximates it; ≥ and ≤ were set here for values at or beyond the usual limits of such assays. Particulars: source organism: Mycobacterium tuberculosis str. Haarlem.
Assay [33] has as its target HLA-B*15:42. In words: IEDB peptide-MHC binding, purified MHC/competitive/fluorescence; filed as Kd, often an IC50 or EC50 that approximates it; ≥ and ≤ were set here for values at or beyond the usual limits of such assays. The note with it: source organism: Mycobacterium tuberculosis C.
The target in assay [34] is HLA-B*83:01. Described as above. The note with it: source organism: Mycobacterium tuberculosis C.
In assay [35] the target is HLA-B*45:06. The description is as above. Particulars: source organism: Mycobacterium tuberculosis C.
Assay [36] addresses HLA-A*32:15. Described as above. The note with it: source organism: Mycobacterium tuberculosis C.
Assay [37] concerns the target HLA-B*15:01. Described as above. The note with it: source organism: Mycobacterium tuberculosis C.
The mark [38] stands for this setting: source organism: Mycobacterium tuberculosis.
Setting [39] is: source organism: Camelpox virus M-96.
[40] abbreviates: source organism: Mycobacterium tuberculosis str. Haarlem.

APAKKAAPA: the Kd (commonly the concentration at which binding is half-saturated) in [1] was at least 20 µM; in assay [2] it was at least 20 µM; in assay [3] it was at least 20 µM; in assay [4] it was 0.077 µM; in assay [5] (setting [38]) it was at least 20 µM; in assay [6], at least 20 µM. In addition, the Kd in assay [7] (setting [38]), in assay [8], in assay [9], in assay [10], in assay [11] and in assay [12] (setting [38]) was at least 20 µM each time. For the same sequence, the Kd in [13], in assay [14] (setting [38]), in assay [15] (setting [38]), in assay [16] (setting [38]), in assay [17] and in [18] was at least 20 µM throughout. Further, the dissociation constant Kd in assay [19] is at least 20 µM.

On to EYKKFIATF, for which the Kd in assay [5] (setting [39]) was at least 20 µM; in [7] (source organism: Variola virus), 0.256 µM; in assay [20], at least 20 µM; in [12] (setting [39]), at least 20 µM; in [14] (setting [39]), at least 20 µM; in assay [21], at least 20 µM. For the same sequence, the Kd is at least 20 µM in assay [15] (setting [39]); 0.032 µM in assay [22]; at least 20 µM in assay [16] (setting [39]); at least 20 µM in assay [23] (source organism: Variola virus); 4.85 µM in [24]; at least 20 µM in assay [25] (source organism: Variola virus). Moreover, the dissociation constant (Kd) in [26] was 0.865 µM; in assay [27], at least 20 µM; in assay [28], 0.0583 µM; in assay [29], at least 20 µM; in assay [30], 0.818 µM; in assay [31] it was 3 µM.

Regarding SPRSRNRSF, the dissociation constant Kd in assay [1], in [2], in [3], in assay [5] (setting [38]), in assay [6] and in [7] (setting [38]) was at least 20 µM throughout. For the same sequence, the Kd in assay [8], in assay [9], in [10], in assay [11], in assay [12] (setting [38]) and in assay [13] was at least 20 µM in each case. Further, the dissociation constant Kd in [14] (setting [38]), in assay [15] (setting [38]), in assay [16] (setting [38]), in assay [17], in assay [18] and in [23] (setting [40]) was at least 20 µM each time. Besides, the figures for the Kd in [19] and in [25] (source organism: Mycobacterium tuberculosis variant bovis BCG str. Pasteur 1173P2) were at least 20 µM and 0.123 µM, respectively.

With LPAEVRAAF, the Kd is at least 20 µM in assay [1]; at least 20 µM in assay [2]; at least 20 µM in [3]; 4.61 µM in [5] (setting [38]); at least 20 µM in [7] (setting [38]); at least 20 µM in assay [32]. In addition, the dissociation constant (Kd) in assay [8] is at least 20 µM; in [10] it was at least 20 µM; in assay [12] (setting [38]), at least 20 µM; in assay [13], at least 20 µM; in assay [15] (setting [38]), 1.31 µM; in [16] (setting [38]), at least 20 µM. The equilibrium dissociation constant (Kd) in assay [17] is at least 20 µM; in [18] it was at least 20 µM; in assay [23] (setting [40]) it was 0.889 µM; in [19] it was at least 20 µM; in [33], at least 5 µM; in assay [34] it was 0.0676 µM. The Kd in [35] was at least 5 µM; in [36], 0.757 µM; in [37], at least 20 µM.
